Key:
human IL-6 (human) = human IL-6 (human) (UniProt P05231); experiment: cell-based or functional assay
[1] = target: Fc-IL6Ralpha-IL6 (human IL-6Ralpha and IL-6; mouse Fc); experiment: cell-based or functional assay
Sequence of Fc-IL6Ralpha-IL6 (human IL-6Ralpha and IL-6; mouse Fc) (chain, as listed by the source limits assumed): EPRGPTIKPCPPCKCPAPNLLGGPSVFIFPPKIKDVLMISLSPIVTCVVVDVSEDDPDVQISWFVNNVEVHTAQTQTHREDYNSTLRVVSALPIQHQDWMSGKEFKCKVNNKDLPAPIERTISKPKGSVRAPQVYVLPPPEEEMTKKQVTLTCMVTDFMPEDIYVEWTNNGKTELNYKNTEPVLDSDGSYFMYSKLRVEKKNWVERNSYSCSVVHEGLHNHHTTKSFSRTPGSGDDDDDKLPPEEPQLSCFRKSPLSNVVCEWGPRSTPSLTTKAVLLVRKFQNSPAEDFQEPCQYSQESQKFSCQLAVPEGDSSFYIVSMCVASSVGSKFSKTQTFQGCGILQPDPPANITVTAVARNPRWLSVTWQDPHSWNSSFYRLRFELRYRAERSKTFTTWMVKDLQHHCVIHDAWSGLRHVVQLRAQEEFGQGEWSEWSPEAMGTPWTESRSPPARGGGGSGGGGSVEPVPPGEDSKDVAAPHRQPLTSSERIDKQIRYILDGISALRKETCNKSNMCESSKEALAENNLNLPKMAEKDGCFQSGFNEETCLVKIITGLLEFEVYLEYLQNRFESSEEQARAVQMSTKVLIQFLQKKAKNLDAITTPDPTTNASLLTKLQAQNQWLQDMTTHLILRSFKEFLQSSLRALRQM

Sequence of human IL-6 (human) (P05231 30-212 limits assumed): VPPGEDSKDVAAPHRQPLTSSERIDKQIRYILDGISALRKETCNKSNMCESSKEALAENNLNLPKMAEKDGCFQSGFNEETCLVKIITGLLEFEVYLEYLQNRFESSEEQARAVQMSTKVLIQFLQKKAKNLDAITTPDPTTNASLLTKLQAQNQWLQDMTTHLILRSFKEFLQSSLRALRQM

- Haptoglobin Inhibition IC50 (HepG2 cells stimulated with IL-6) (human IL-6 (human)): 0.00519 µg/mL
- LP-1 Proliferation IC50 (stimulated with IL-6) (human IL-6 (human)): 0.0101 µg/mL
- 8 Hours % Inhibition of haptoglobin secretion in mice given Fc-IL6Rα-IL6 [1]: 12%
- 24 hours % Inhibition of haptoglobin secretion in mice given Fc-IL6Rα-IL6 [1]: -3%
- Haptoglobin Inhibition IC50 (HepG2 cells stimulated with IL-6Rα-IL-6) [1]: > 0.333 µg/mL
- LP-1 Proliferation IC50 (stimulated with Fc-IL6Ralpha-IL6) [1]: 1.61 µg/mL
B1: CNTO-328 (antibody, INN chains, looked up, V domains shown)
VH: EVQLVESGGKLLKPGGSLKLSCAASGFTFSSFAMSWFRQSPEKRLEWVAEISSGGSYTYYPDTVTGRFTISRDNAKNTLYLEMSSLRSEDTAMYYCARGLWGYYALDYWGQGTSVTVSS
VL: QIVLIQSPAIMSASPGEKVTMTCSASSSVSYMYWYQQKPGSSPRLLIYDTSNLASGVPVRFSGSGSGTSYSLTISRMEAEDAATYYCQQWSGYPYTFGGGTKLEIK

Reference: patent US20070178098A1
